Reference: article PMC12102759

B1: ATXN2 peptide 913-928 (Ataxin-2), 16-mer library wild type / PABPC1 PABC (PABPC1 PABC domain, residues 544-623) (parent)
chain 1: TLNPNAKEFNPRSFSQ
chain 2: PLTASMLASAPPQEQKQMLGERLFPLIQAMHPTLAGKITGMLLEIDNSELLHMLESPESLRSKVDEAVAVLQAHQAKEAA
B2: MXI1 peptide 4-19 (Max-interacting protein 1), 16-mer library wild type / SIN3A PAH2 (SIN3A PAH domain, residues 295-383) (parent)
chain 1: VKMINVQRLLEAAEFL
chain 2: SLQNNQPVEFNHAINYVNKIKNRFQGQPDIYKAFLEILHTYQKEQRNAKEAGGNYTPALTEQEVYAQVARLFKNQEDLLSEFGQFLPDA
B3: PAIP1 peptide 126-141 (Polyadenylate-binding protein-interacting protein 1), 16-mer library wild type / PABPC1 PABC (PABPC1 PABC domain, residues 544-623) (parent)
chain 1: SKLSVNAPEFYPSGYS
chain 2: B1 chain 2

Variants of: B1
Assay: proteomic peptide phage display deep mutational scan (ProP-PD DMS): M13 P8 16-mer library selected against immobilised GST-tagged bait for four days (rounds), NGS of the eluted pools per day and pseudo-replica
Conditions: with PABPC1 PABC (PABPC1 PABC domain, residues 544-623); bait immobilised on MaxiSorp plates (10 µg), library pre-cleared on GST, 2 h binding at 4 °C, five washes; one round per day, days 1-4; value from days 2 and 3; scale: average fractional NGS count over selection days 2 and 3

Screen value, by site and new letter:
chain 1 P4: F 0.000109, S 0.000147, Y 0, E 1.57e-05, Q 0.000331, W 0, A 0.000191
chain 1 E8: I 0.000142, D 0, L 0
chain 1 N3: I 0, P 0, K 0, A 0, H 0, T 8.32e-05
chain 1 S15: T 2.11e-05, L 6.16e-05, K 0.00027, Y 0.000175, N 0.000264
chain 1 N5: S 0.000305, Y 0.000372, P 1.03e-05, W 0.000157
chain 1 F14: T 0.000127, S 8.48e-05, D 0.000335
chain 1 K7: R 0.000217, M 3.88e-05, E 0.000169
chain 1 F9: G 0, Y 0.000112, A 0, Q 0
chain 1 P11: I 9.64e-06
chain 1 A6: I 0.000105, P 0
chain 1 T1: E 0.000115, S 0.000147, W 4.71e-05, Q 0.000237
chain 1 S13: E 0.000117, K 0.000149, M 0.000163, F 7.96e-05, I 0, H 0.00026, V 0.000423
chain 1 L2: D 0
chain 1 N10: V 1.03e-05, K 0.000142, E 2.66e-05, G 0.000262

Variants of: B2
Assay: as above
Conditions: with SIN3A PAH2 (SIN3A PAH domain, residues 295-383); bait immobilised on MaxiSorp plates (10 µg), library pre-cleared on GST, 2 h binding at 4 °C, five washes; one round per day, days 1-4; value from days 2 and 3; keep out of graded; scale: average fractional NGS count over selection days 2 and 3

Screen value of substitutions, site by site:
chain 1 L9: T 0, M 0, I 0.00165, N 0, G 0
chain 1 V6: S 0, I 0.000142, Y 0.000458, Q 2.36e-05, T 0, M 0.000299
chain 1 R8: M 9.12e-05, L 5.66e-05, V 2.88e-05, A 0.000466, K 0.000316, N 0.000431, I 0.000199, W 0.000195, E 0, Y 0.000148, Q 0.000659, G 0.000403, S 0.000529
chain 1 E14: I 0.00251, V 0.0112, Y 0.00266, Q 0.00119, F 0.000859, N 0.000159, M 0.00144, G 0.00102, R 0.00116, A 0.0141, S 0.00604, D 0.0127
chain 1 L16: I 0.00145, M 3.86e-05, H 0.000538, K 7.16e-05, N 8.06e-05, A 0.000201, V 7.65e-05, Q 0.000343, G 5.21e-05, E 7.18e-05, R 0.000122, S 9.12e-05, T 3.79e-05, D 5.21e-05
chain 1 K2: W 0.00198, Q 0.00731, N 0.00263, P 0.00116, R 0.000162, G 0.00453, M 0.000167, Y 0.00178, I 0.00027, V 0.000308, H 0.00169, S 0.00272, L 0.00133
chain 1 F15: W 0.000134, H 2.84e-05, G 4.24e-05, T 9.49e-05, S 4.3e-05, I 0, R 3.85e-05, V 2.36e-05, A 0.00102, Y 0.00011
chain 1 I4: V 0.00213, H 0.000141, W 8.32e-05, F 0.000274, L 0.00108, M 0.00797, A 0, N 0.000113, K 0, T 0.000667, G 4.79e-05, D 0.00294
chain 1 M3: R 0, A 6.73e-05, G 9.82e-05, V 0.000204, H 0.000154, T 4.82e-05, N 2.4e-05, W 8.38e-05, L 0, D 0.000126
chain 1 L10: V 0, W 3.85e-05, A 0, T 0.000112
chain 1 E11: P 0, G 0, W 0.00397
chain 1 A13: M 8.44e-05, K 0, I 0.000995
chain 1 Q7: M 0, G 0, P 0, S 0.000125, W 0.00193, V 0.00118, L 0.000431, T 0.000284, E 0
chain 1 N5: M 0.0011, F 0.000135, T 0.000204, L 0.00022, G 0.000565, W 0.00143

Variants of: B3
Assay: as above
Conditions: with PABPC1 PABC (PABPC1 PABC domain, residues 544-623); bait immobilised on MaxiSorp plates (10 µg), library pre-cleared on GST, 2 h binding at 4 °C, five washes; one round per day, days 1-4; value from days 2 and 3; keep out of graded; scale: average fractional NGS count over selection days 2 and 3

Screen value: each site, then its substitutions
chain 1 P8: G 0.000696, Q 0.000383, M 0.00039, V 0.00064, L 0.000643, Y 0.0021, D 0.000406, R 0.000635, N 0.0134, I 0.000615, S 0.000241, F 0.000185
chain 1 G14: K 0.000153, V 0.000565, Q 9.29e-05, T 0.000205, P 0.00116, A 0.00104, S 0.000279, R 0.000231
chain 1 S4: V 9.02e-05, Y 0.000225, P 0.000535, D 0, E 0.000106, G 0.000919, F 0.000754, Q 0.00694, M 8.55e-05, L 0.000589, T 0.000487, R 0.000365
chain 1 Y15: K 0.00083, E 7.22e-05, A 0.00116, D 0.000552, S 0.00124, H 0.000264, N 0.000304, Q 0.000411, M 4.17e-05, V 0.000741, R 0.00115, I 7.69e-05, T 0.000348, W 0.000396, L 0.000221
chain 1 S13: M 0.000419, N 0.00287, Y 0.00035, G 4.28e-05, P 0, D 0, L 0.000235, I 0.000936, H 0.000367, E 0.000161, V 0.000104
chain 1 Y11: F 0.000586, K 0.000481, R 0.000552, I 0.000574, W 0.000643, A 0.000962, Q 0.00111, G 0.000528, H 0.000612, D 0.000603, L 0.00117, V 0.00109, T 0.000142, M 0.00123, N 0.000309
chain 1 K2: H 4.17e-05, V 0.000896, P 0.00022, D 0.000197, Y 0.000158, W 0.000491, F 0.000245
chain 1 S1: R 7.1e-05, F 0, L 0.00185, I 0.00076, W 0.000299, P 0.000196, K 0.00037, N 0.000154, Y 0.000342, H 0.000214, A 0.0012, Q 0.000406, V 0.000196
chain 1 F10: Y 0.00206, D 0, W 0.0171, V 0, Q 0
chain 1 A7: P 0.000137, M 0.000228, Q 0.00119, N 0.000551, T 0.00119, H 0.000147, V 0.000178, S 0.000407
chain 1 V5: A 0.00035, H 0.000797, M 0.000169, G 9.64e-06, N 0.000152, K 0.000215, L 0.000898, R 0.000262, Y 0, Q 0.00077, P 0.00187
chain 1 L3: I 0.00043, V 0.000373, W 0.000852, F 0.000815
chain 1 P12: A 0.00198, H 0.00057, L 0.00211, T 0.000222, M 0.000643, E 0.000484, Q 0.000152, F 0.00121, N 8.81e-05, S 0.00133, R 4.76e-05, I 0.000623
chain 1 E9: Y 0.000173, S 0.00129, R 4.17e-05, Q 0.000332, I 8.24e-05, H 0.00439, K 0.000266, N 0.00191, L 0.000721, V 0.000182, P 0.000543, D 0.000746, T 0.00117
chain 1 N6: Y 0.000705, L 0.00023, T 0.000385, R 0.000467, A 0.000611, G 0.000194, M 0.000149, F 0.000327, E 0, P 0, V 0.000215, I 0.000614, W 0.000917, H 0.000862
